In test [1] the target is T1, Human GAL3 protein (TrueBinding, QCB200349 / QCB200352; R&D Systems, 8259-GA) (human, UniProt P17931 2-250).
T1 construct: also called human galectin-3
Put plainly: blocking ELISA (GAL3 coated; antibody + biotinylated ITGaV). In general terms: In an ELISA, binding on a coated surface is turned into a signal by an enzyme label.

Test [2] deals with T1, Human GAL3 protein (TrueBinding, …). Briefly: blocking ELISA (GAL3 coated; antibody + biotinylated ITGa3).
For test [3] the target is unchanged. Put plainly: blocking ELISA (GAL3 coated; antibody + biotinylated ITGb3).
Test [4] addresses T2, Human Galectin-3 protein (Acro Biosystems, GA3-H5129) (human, UniProt P17931 2-250).
T2 construct: Bought protein; also called Gal3-ECD-His; Gal3-His; not shown: linker-spaced 6-histidine tag
Put plainly: ELISA, blocking of INSR binding to coated Gal3.

Test [5] has as its target T2, Human Galectin-3 protein (Acro …). Briefly: blocking ELISA (Gal3 coated; antibody 3 µg/mL + INSR).
Test [6] shares this target. Briefly: SPR (Biacore T200), antibody captured, Galectin-3 as analyte.
The target is the same in test [7]. Put plainly: ELISA, blocking of INSR binding to coated Gal3. This is another data set of the same source.
Test [8] has as its target T1, Human GAL3 protein (TrueBinding, …). Put plainly: blocking ELISA (GAL3 coated; antibody + biotinylated ITGb1).

A value given as a limit tells only on which side of the number the result lay.

For orientation: Kd means the free concentration of one partner at which half of the binding sites on the other are occupied at equilibrium, for simple one-to-one binding.

B1: F847C.11B1 (antibody, V domains shown)
VH: EVQLQQSGPELVKPGASVKISCKASGNTFTDHNMHWVKQSHGKSLEWIGYIYPYNGGTGYNQKFKSKATLTVDNSSSTVYMELRSLTSEDSAVYYCARGEYDYLAWFAYWGQGTLVTVSA
VL: EIVLTQSPASLSVTTGEKVTIRCITSIDIDDDMNWYQQKPGEPPKLLISEGNTLRPGVPSRFSSSGYGTDFVFTIENTLSEDVADYYCLQSDNKPLTFGAGTKLELKR
notes: anti-Gal3 antibody; also called 847.11B1
Regarding B1, the “percent blockade of GAL3-ITGaV interaction” value in test [1] was less than 30%. Moreover, in test [2], the “percent blockade of GAL3-ITGa3 interaction” value was less than 35%. Further, the “percent blockade of GAL3-ITGb3 interaction” value in test [3] was less than 10%.

B2: F847.14H4 (847.14H4) (antibody, V domains shown)
VH: QIQLVQSGPELTKPGETVKISCKASGYTFTDYGMNWVRQAPGETLKWMGWINTYTGEPTYADDFKGRFAFSLESSASTAYLQINNLKNEDVATYFCARYPMDYWGQGTSVTVSS
VL: QAVVTQESALTTSPGETVTLTCRSSTGAVTTSNYANWVQEKPDHLFTGLIGGTNNRAPGVPARFSGSLIGDKAALTITGAQTEDEAIYFCALWYSNHLVFGGGTKLTVL
notes: anti-Gal3 antibody
Regarding B2, the “percent blockade of GAL3-ITGaV interaction” value in test [1] is less than 30%. Also, the “percent blockade of GAL3-ITGa3 interaction” value in test [2] is less than 35%. In addition, in test [3], the “percent blockade of GAL3-ITGb3 interaction” value is less than 10%.

B3: 2D10.2B2 (antibody, V domains shown)
VH: QVQLQQSGPELVKPGASVKISCKASGYTFTDYYINWVKQRPGQGLEWIGWIYPGSNDTKYNEKFKGKATLTVDTSSSTAYMQLGSLTSEDSAVYFCANYFGCSGWFFDVWGTGTTVTVSS
VL: DIVMTQAAFSNPVTLGTSASISCRSSKSLLHSDGITYLYWYLQRPGQSPQLLIYRMSNLASGVPDRFSGSGSGTDFTLRISRVEAEDVGVYYCAQMIEFPLTFGAGTILELK
For B3, the “percent blockade of GAL3-ITGaV interaction” value in test [1] is more than 90%. The “IC50 (read off the curve)” value in test [4] is approximately 0.5 µg/mL. In test [2], the “percent blockade of GAL3-ITGa3 interaction” value is more than 90%. For the same molecule, the “Gal3-INSR binding remaining, % of unblocked sample” value (“Gal3-INSR binding remaining, %” below) in test [5] is less than 5%. The molecule further gave a Kd in test [6] of 0.753 nM. In test [3], the “percent blockade of GAL3-ITGb3 interaction” value was more than 90%. Also, in test [7], the “Gal3-INSR Blocking @ 3 µg/mL” value came to 100%.

B4: 4A11.2B5 (antibody, V domains shown)
VH: QVQLQQSGPELVKPGASVKISCKASGYSFTNYYIHWVKQRPGQGLEWIGWIYPGSGNTNYNEKFKGKATLTADTSSSTTNMQLSSLTSEDSAVYYCSTAPGGFDVWGSGTTVTVSS
VL: DIVMTQAAFSNPVTLGTSASISCRSSKSLLHSDGITYLYWYLQRPGQSPQLLIYRMSNLASGVPDRFSGSGSGTDFTLRISRVEAEDVGVYYCAQMLEFPLTFGAGTKLELK
In the case of B4, the “Gal3-INSR binding remaining, %” value in test [5] was less than 5%. In addition, binding in test [6] was put at a Kd of 5.22 nM. In addition, in test [7], the “Gal3-INSR Blocking @ 3 µg/mL” value stood at 100%.

B5: 3B11.2G2 (antibody, V domains shown)
VH: QIQLVQSGPELKKPGETVKISCKTSGYKFKTYVMSWVKQAPGKALKWMGWINTYSGVPTYADDFKGRFAFSLETSASTAYLEIINLKNEDTATYFCARDGNYGDPMDYWGQGTSVTVSS
VL: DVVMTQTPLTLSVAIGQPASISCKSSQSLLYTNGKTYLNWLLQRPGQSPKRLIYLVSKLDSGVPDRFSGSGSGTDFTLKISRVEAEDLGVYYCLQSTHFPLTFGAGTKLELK
As for B5, the “Gal3-INSR binding remaining, %” value in test [5] is less than 5%. The molecule also registered a Kd in test [6] of less than 1 nM. For the same molecule, the “Gal3-INSR Blocking @ 3 µg/mL” value in test [7] was found to be 96%.

B6: 13A12.2E5 (antibody, V domains shown)
VH: QIQLVQSGPELKKPGETVKISCKTSGYKFKTYVMSWVKQAPGKALKWMGWINTYSGVPTYADDFKGRFAFSLETSASTAYLEIINLKNEDTATYFCARDGNYGDPMDYWGQGTSVTVSS
VL: DVVMTQTPLTLSVAIGQPASISCKSSQSLLYTNGKTYLNWLLQRPGQSPKRLIYLLSKLDSGVPDRFSASGSGTDFTLKISRVEAEDLGVYYCLQSTHFPLTFGAGTKLEMK
As to B6, the “percent blockade of GAL3-ITGa3 interaction” value in test [2] was more than 90%. The “Gal3-INSR binding remaining, %” value in test [5] is less than 5%. The molecule further returned a Kd in test [6] of 8.2 nM. Moreover, the “percent blockade of GAL3-ITGb3 interaction” value in test [3] was more than 90%. Also, in test [7], the “Gal3-INSR Blocking @ 3 µg/mL” value worked out at 97%.

B7: IMT001 (TB001) (antibody, V domains shown)
VH: QVQLVQSGSELKKPGASVKVSCKASGYTFTNYGMNWVRQAPGQGLKWMGWINTNTGEPTYVEEFTGRFVFSLETSVSTAYLQISSLKAEDTAVYFCAPYDNFFAYWGQGTTVTVSS
VL: DIVLTQSPLSLPVTPGEPASISCRSSKSLLYKDGKTYLNWFLQKPGQSPQLLIYLMSTHASGVPDRFSGSGSGTDFTLKISRVEAEDVGVYYCQQLVDYPLTFGGGTKLEIK
notes: anti-Gal3 antibody; also called IMT001-4
Consider B7, for which the “percent blockade of GAL3-ITGaV interaction” value in test [1] was more than 90%. Further, in test [4], the “IC50 (read off the curve)” value is approximately 0.8 µg/mL. Further, the “percent blockade of GAL3-ITGa3 interaction” value in test [2] was more than 90%. The same molecule showed a Kd in test [6] of 6.09 nM. Besides, the “percent blockade of GAL3-ITGb1 interaction” value in test [8] is more than 90%. In addition, the “percent blockade of GAL3-ITGb3 interaction” value in test [3] is more than 90%. In addition, in test [7], the “Gal3-INSR Blocking @ 3 µg/mL” value amounted to 100%.

B8: F846C.1F5 (antibody, V domains shown)
VH: QIQLVQSGPELKKPGETVKISCKASGYTFTNYGMNWVKQAPGKGLKWMGWINTYTGEPSYADDFKGRFAFSLETSASTAYLQINNLKNEDMATYFCARWGGYDGDYYAMDYWGQGTSVTVSS
VL: NIMMTQSPSSLAVSAGEKVTMSCKSSQSVLYSSNQKNYLAWYQQKPGQSPKLLIYWASTRESGVPDRFTGSGSGTDFTLTISSVQPEDLAVYYCHQYLSSLTFGAGTKLELK
notes: also called 846.1F5
As to B8, the “percent blockade of GAL3-ITGaV interaction” value in test [1] was more than 90%. Besides, the “percent blockade of GAL3-ITGa3 interaction” value in test [2] was more than 90%. The “percent blockade of GAL3-ITGb1 interaction” value in test [8] is more than 90%. Moreover, in test [3], the “percent blockade of GAL3-ITGb3 interaction” value was more than 90%.

B9: IMT006 (TB006) (antibody, V domains shown)
VH: QVQLVQSGAEVKKPGASVKVSCKASGYSFTNYYMHWVRQAPGQRLEWMGWIYPGSGNTNYNEKFQGRVTITADTSASTAYMELSSLRSEDTAVYYCSTAPGGFDVWGQGTTVTVSS
VL: DIVMTQTPLSLSVTPGQPASISCKSSKSLLHSDGITYLYWYLQKPGQSPQLLIYRMSNLASGVPDRFSGSGSGTDFTLKISRVEAEDVGVYYCAQMLEFPLTFGQGTKLEIK
notes: anti-Gal3 antibody
For the molecule B9, the “percent blockade of GAL3-ITGaV interaction” value in test [1] was more than 90%. In addition, in test [4], the “IC50 (read off the curve)” value was approximately 0.7 µg/mL. The “percent blockade of GAL3-ITGa3 interaction” value in test [2] is more than 90%. In addition, binding in test [6] was put at a Kd of 16.5 nM. Further, the “percent blockade of GAL3-ITGb1 interaction” value in test [8] is more than 90%. Also, the “percent blockade of GAL3-ITGb3 interaction” value in test [3] was more than 90%. Further, the “Gal3-INSR Blocking @ 3 µg/mL” value in test [7] is 100%.

B10: 14H10.2C9 (antibody, V domains shown)
VH: QIQLVQSGPELKKPGETVKISCKASGYTFTTYGMGWVKQAPGKDLKWMGWINTYSGVPTYADDFKGRFAFSLETSASTAYLQISNLKNEDTATYFCSTPYEYDGAYWGQGTLVTVSA
VL: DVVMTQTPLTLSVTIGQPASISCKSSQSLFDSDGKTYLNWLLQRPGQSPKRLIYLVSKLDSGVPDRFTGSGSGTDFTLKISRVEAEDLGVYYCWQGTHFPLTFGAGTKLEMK
B10: the “percent blockade of GAL3-ITGaV interaction” value in test [1] was more than 90%. The “percent blockade of GAL3-ITGa3 interaction” value in test [2] is more than 90%. The “Gal3-INSR binding remaining, %” value in test [5] is less than 5%. In test [6], the Kd worked out at 0.562 nM. The “percent blockade of GAL3-ITGb3 interaction” value in test [3] was more than 90%. For the same molecule, the “Gal3-INSR Blocking @ 3 µg/mL” value in test [7] turned out to be 100%.

B11: 19D9.2E5 (antibody, V domains shown)
VH: QIQLVQSGPELKKPGETVKISCKASGYTFTTYGMGWVKQAPGKGLKWMGWINTYSGVPTYADDFKGRFAFSLETSTSTAYLQINNLKNEDMATYFCATPYEYDGAYWGQGTLVTVSA
VL: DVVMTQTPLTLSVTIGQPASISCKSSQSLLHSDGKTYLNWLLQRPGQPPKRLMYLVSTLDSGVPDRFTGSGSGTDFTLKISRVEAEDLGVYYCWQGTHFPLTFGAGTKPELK
As to B11, the “Gal3-INSR binding remaining, %” value in test [5] is less than 5%. Besides, the Kd in test [6] is less than 1 nM. Also, the “Gal3-INSR Blocking @ 3 µg/mL” value in test [7] is 100%.

B12: 24D12.2H9 (antibody, V domains shown)
VH: QVQLKQSGPGLVQPSQSLSITCTVSGFSLTSYGVHWVRQAPGKGLEWLGVIWSGGSTDYNAAFMSRLSISKDNSKSQVFFKMNSLQADDTAIYYCAKSPDGYDVAWFGYWGQGTLVTVSA
VL: DIVMTQSHKFMSTSVGDRVSITCKASQDVRTAVAWYQQKPGQSPKLLIYWASTRHTGVPDRFTGSGSGTDFTLTLSNVQSEDLADYFCQQYSSYPWTFGGGTKLEIK
As for B12, the “reduction of Gal3-INSR binding (%)” value in test [5] is not above 30%. In test [6], the dissociation constant (Kd) amounted to 4.13 nM. Also, in test [7], the “Gal3-INSR Blocking @ 3 µg/mL” value was 22%.

B13: 4G2.2G6 (antibody, V domains shown)
VH: QIQLVQSGPDLKKPGETVKISCKASGYTFTTYVMSWVKQAPGKDLKWMGWINTHSGVPTYADDFKGRFDFSLETSANTAFLQINNLKNEDTATYFCTRDGNDGDAMDNWGQGTSVTVSS
VL: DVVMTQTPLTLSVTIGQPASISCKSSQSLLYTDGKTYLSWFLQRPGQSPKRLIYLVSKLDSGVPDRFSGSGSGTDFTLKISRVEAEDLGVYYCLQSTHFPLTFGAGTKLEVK
With B13, the “Gal3-INSR binding remaining, %” value in test [5] is less than 5%. The same molecule came in with a Kd in test [6] of less than 1 nM. Moreover, in test [7], the “Gal3-INSR Blocking @ 3 µg/mL” value came out at 100%.

B14: 12G5.D7 (antibody, V domains shown)
VH: QVQLKQSGAELVRPGASVKLSCKASGYTFTDYYINWVKQRPGQGLEWIARIYPGTGNTDYNEKFKGRATLTAEKSSSTAYMQLSSLTSEDSAVYFCARFAYYYGSGGYFDYWGHGTTLTVSS
VL: DILMTQSPSSMSVSLGDTVSITCHASQGINSNMGWLQQKPGKSFKGLIYHATNLEDGVPSRFSGSGSGADYSLTISSLESEDFADYYCVQYAQFPPTFGSGTKLEIK
Turning to B14, the “percent blockade of GAL3-ITGaV interaction” value in test [1] was less than 30%. In addition, in test [2], the “percent blockade of GAL3-ITGa3 interaction” value was less than 35%. In addition, the “reduction of Gal3-INSR binding (%)” value in test [5] is not above 30%. In test [6], the Kd is 1.9 nM. In addition, the “percent blockade of GAL3-ITGb3 interaction” value in test [3] was less than 10%. The “Gal3-INSR Blocking @ 3 µg/mL” value in test [7] is 27%.
